Experimental data: the DeepSol protein solubility set

Experiment: soluble on expression in E. coli; label from the status in PepcDB or PDB records

Which “soluble on expression in E. coli” value does the source give for “MGHHHHHHSHMTLQALSEANRRLWMEAMDGKEPIYHSPITKQQEMELNEVGFKFVRKCINIIETKGIKTEGLYRTVGSNIQVQKLLNAFFDPKCPGDVDFHNSDWDIKTITSSLKFYLRNLSEPVMTYRLHKELVSAAKSDNLDYRLGAIHSLVYKLPEKNREMLELLIRHLVNVCEHSKENLMTPSNMGVIFGPTLMRAQEDTVAAMMNIKFQNIVVEILIEHFGKIYLGPPEESAAPPVPPPRVTARRHKP” here?
Its value is “not soluble”.

For “MGHHHHHHSHMTTNSLLIIDFEFTMPDGKYSPQNFFPEIIEAGIVKSIDDEVVETFSSYVRPKKFPKLTKRCKSFLKITQKQVDEGMRFEDFIRKLNELDPEKNSTIITWGNMDMKVLKQNCMFNHIPFPFKGEMRDLSLEYKNFFGDRTLTGLWKAAEEYGDSGTGTHHKALDDALTAYKLFKLVEQDKQYLEKPKPPTIGERIDLTELLKRAT”, which “soluble on expression in E. coli” value is on record?
The value was “soluble”.

With “MGHHHHHHSHSEVAIKIDFDFAPGSFDDQYQGCSKQVMEKLTQGDYFTKDIEAQKNYFRMWQKAHLAWLNQGKVLPQNMTTTHAVAILFYTLNSNVHSDFTRAMASVARTPQQYERSFHFKYLHYYLTSAIQLLRKDSIMENGTLCYEVHYRTKDVHFNAYTGATIRFGQFLSTSLLKEEAQEFGNQTLFTIFTCLGAPVQYFSLKKEVLIPPYELFKVINMSYHPRGNWLQLRSTGNLSTYNCQLLKASSKKCIPDPIAIASLSFLTSVIIFSKSRV” as the sequence, how does the “soluble on expression in E. coli” value read?
Its value is “not soluble”.

With “MGHHHHHHSHTKSARVKGLSFHPKRPWILTSLHNGVIQLWDYRMCTLIDKFDEHDGPVRGIDFHKQQPLFVSGGDDYKIKVWNYKLRRCLFTLLGHLDYIRTTFFHHEYPWILSASDDQTIRVWNWQSRTCVCVLTGHNHYVMCAQFHPTEDLVVSASLDQTVRVWDISGLRKKNLSPGAVESDVRGITGVDLFGTTDAVVKHVLEGHDRGVNWAAFHPTMPLIVSGADDRQVKIWRMNESKAWEVDTCRGHYNNVSCAVFHPRQELILSNSEDKSIRVWDMSKRTG” as the sequence, how does the “soluble on expression in E. coli” value read?
The value was “soluble”.

For “MGHHHHHHSHVNTLGPEGTSSEYAAKHFISNFTLLQGLNSKLSLHDTFESCIERTLQSPLEYTIVPHAYDGIKHFYMRPDLQLLQIFRCDTPMYGLAVRPDFEFRDDMLDTSVIVSHPSPINLIKYFTRKDVRFKLVNSTSQAARKVKEGLYDIALTNELARQKYGLTFVKTFKSIPMSWSLFGKGDV”, which “soluble on expression in E. coli” value is on record?
The value was “soluble”.

Which “soluble on expression in E. coli” value does the source give for “MGHPARMAILSFLAKQESCFFGDIHEELPIAKATVSQHLKELKDAGLIQGEIETPKVRYCINKENWELARKLFAAFLGDCKCTGTSCCG” here?
The value was “not soluble”.

Which “soluble on expression in E. coli” value does the source give for “MGHQVAIYDSRPFVGGKVGSWIDADGNHIEMGLHVFFFNYANLFALMRKVGAFENLLPKAHTHTFINKGGEVGELDFRFPIGAPFNGLKAFFTTSQLTWLDKLQSALALGTSPLVRGILDYEGAMKIIRALDRISFADWFRSHGGSEGSLKRMWNPIAYALGFIDTENISARCMLTVFQMFAAKTEASKLNLLAGSPAEYLHKPILDYIQARGATLHLQRRVREIEYTETNGQTVVTGLQIADGDAVERVEADVYLAACDVPGIQRLLPEAWRKWSEFDNIYKLDAVPVATVQLRFDGWVTELVDREKRHQLDHATGLDNLLYTADADFSCFTDLALSSPKDYYRKGQGSLLQCVLTPGDPFIAMKNEDIAQHVLKQVHELFPSSRDLNMTWSNVVKLAQSLYREAPGMDPFRPDQKTPIANFFLAGSYTQQDYIDSMEGATISGRRAAKAMLEAQAIAALEHHHHHH” here?
The value was “not soluble”.

Which “soluble on expression in E. coli” value does the source give for “MGICVVIPAFNAALTIEAVVRETLEQGLPLVVVDDGSEDGTADCVRGLPVNLVSHGRNRGKGAALKTGFAWALEYGFSGVITLDSDGQHDPTAITLLAETAKNDGWDILVASRFAQFNQMAGLRRHWNRFGAWCMKKRTGFQIDDSQSGFRYYSARLLRMVSLGKDGYDLEMEILMKAWQAGCTIGSVPVPARVADGRATSHFRPVRDTWNICMTFLRYMLEHHHHHH” here?
Its value is “not soluble”.

With “MGISSSAPESLGFDTVLPPHLRQHSHPPAGISPKRFLCRDLWPAELPSPAVSSAVSGPTWPEGISAPVFGKQTHVPQRTGSQDCHSCDPTLPEWERKIPP” as the sequence, how does the “soluble on expression in E. coli” value read?
Its value is “not soluble”.

With “MGKLYVVPTPVGNLEDMTFRAIRVLKEVDLILAEDTRTSGILLKHFEIKNAMQSHHKFNEHKTVESVVNRIKAGETVALISDAGTPGISDPGFLVVRECVRNGIEVQCLPGATAFVPALVASGLPNEKFCFEGFLPQKKGRQTRLKALAEEHRTMVFYESPHRLLKTLTQFAEYFGTERQATVSREISKLHEETVRGSLAELIEHFTATEPRGEIVIVLAGIDD” as the sequence, how does the “soluble on expression in E. coli” value read?
Its value is “soluble”.

With “MGKNEILWGIAPIGWRNDDMPEIGAGNTLQHLLSDIVVARFQGTEVGGFFPEPAILNKELKLRNLRIAGKWFSSFILRDGLGEAAKTFTLHCEYLQQVNADVAVVSEQTYSVQSLEKNVFTEKPHFTDDEWERLCEGLNHLGEIAAQHGLKLVYHHHLGTGVQTAEEVDRLMAGTDPAHVHLLYDTGHAYISDGDYMGMLEKHIGRIKHVHFKDARLNVMEQCRLEGQSFRQSFLKGMFTVPGDGCIDFREVYQLLLKHSYSGWIVIEAEQDPDVANPLEYALIARNYIDQQLLDLAMGHHHHHHSH” as the sequence, how does the “soluble on expression in E. coli” value read?
The value was “soluble”.

Which “soluble on expression in E. coli” value does the source give for “MGKRKTKEDNASEDYDANELMIVPGEKRKKLEKSGEKSATGGKKNRNFAKEKEVAKLTKQAKRKLAAVQSRKALKQTQEELFAGLAEFQLDPSKLCQLSSSTKLSKEPEKAPVFPEKLKVFSGKTKTEAKRTQQDYYPTDDESSSEEEEEEEEGDNDIEDAGNTVEVKIEPIDLDDVDEAIDGNPETNLDQIVVKREDDEESDNEDILALPTTTVINRKKVIVERSKEIQKSRAELPIFAEEMRIVEAINENLVTVVCGETGSGKTTQIPQFLYEAGYASEGELIGITEPRRVAAIAMAQRVGVELAKPDEVSYQIRYEGTRSETTNILFMTDGVLMKEMEQDVMLKKYSVILIDEAHERSMYSDVLIGMLSRIVPLRSKTARPLRLVIMSATLRLDDFTHKKLFPLLTPKVIKVDARQFPVSVHFEKRTPDDYIASAFRKTCRIHETLPPGAILVFVTGQHEVKQLITKLKKRYPVVYETDKNGEVLVKGTKEWKEKKVEAAKSIKLEDFKEETPETEDFEDVDDGLMDGDDMNERGAAEAFDDYEEFENGDGDLSDGKVENSIGAPPADCEPLYCLPLYSLLSMGKQRRVFDETPAGMRLCVISTNVAETSLTIPGVKYVIDGGFEKRRLYDSITGVSRFAVCRISQASGDQRAGRAGRISAGHAYRLYSSAVYQDFVKFADPEILSKPADQLVLHLKSMNIVKVVNFPFPSAPDEQMLESAEKRLCRLGALSESTKNGKTEARITKLGKTLAVFPLAPSYAKFIAMADQHNLMSHAILLISLLSVREPLIPVSSLRGDTPEETKELMKNVLKERRRWCSHTGARRLGDLKVLMHAASVAEQIKYNARECEKVGLRVKALVEARKLRQQLTNIVNASCKKEHAAALDSDLPPPTDQQAQLLRQMVVASFSDRLARRVDRSVGQEEVQKGAYETTLIKGHVFIDPCSVVFTEEPEFVIYQELVQVNEKKLMTSVCAVDKEWLSRLAESYCNYGEQDKNQEPIYDPVKDMVVKTVKVTFGPLNWELPNENRSVPHDIMMYRYFALFLLDGLVFEKLKEYTPKLLAPPSTMVKSWAKLQKRTEMLLNKLIEKEVTTRSSLKEQWLKNENWLLEEYLEWVPESVHQQISLMWPPLEDHEKTIKMGRNKKY” here?
Its value is “not soluble”.

With “MGKRVLIVDDATNGREAVEKYKELKPDIVTMDITMPEMNGIDAIKEIMKIDPNAKIIVCSAMGQQAMVIEAIKAGAKDFIVNTAAVENPSLITQIAQTFGSQAVVVAIDAKRVDGEFMVFTYSGKKNTGILLRDWVVEVEKRGAGEILLTSIDRDGTKSGYDTEMIRFVRPLTTLPIIASGGAGKMEHFLEAFLAGADAALAASVFHFREIDVRELKEYLKKHGVNVRLEGLLEHHH” as the sequence, how does the “soluble on expression in E. coli” value read?
Its value is “soluble”.

Which “soluble on expression in E. coli” value does the source give for “MGKTFTVGSLKHAVRSSERPISAAPPKPDGPSAVRPSVIQIEQKGKTFTVQPAPGVSLLDAALGQGVLLDHKCKKGTCGRCMVTVLAGAHLLAPKTRREREKTDQPAKRLACQAQIQ” here?
Its value is “not soluble”.

For “MGKVTIIAGGIKTESRLTGLTQLAANELVTNGLEVNIIEVHKINAEALVTADFAHSDIQLANSEIESSSGVIIATPIFKAAYSGVLKAYLDLLPLKALKGKVVLPLGLGGSNGHLLALQYALDPVLKELGAETILKGQFTVDKQIERLGDGLYEIESSAKERLDIALGQFISLLNQQSVEVLEHHHHHH”, which “soluble on expression in E. coli” value is on record?
Its value is “soluble”.

With “MGKYDALVELLLEAVKEGANIHQEDCSIPVGISNRHIHLSQADVNTLFGEGYSLTRIKDLSQPGQYACKETLTICGPKGAIENVRILGPERRESQVEILRTDCFKLGLKAPVKLSGELQGTPGMTLVGPKGSVLLSQGVIVAQRHIHMSLEDAQRFGVRDGELVTIQINGLRGGTYANVAIRANNTSQLECHIDTDEANGMDLTPTSRITIIK” as the sequence, how does the “soluble on expression in E. coli” value read?
Its value is “not soluble”.

With “MGKYFGTDGVRGVANSELTPELAFKVGRFGGYVLTKDKQRPKVLIGRDTRISGHMLEGALVAGLLSIGAEVMRLGVISTPGVSYLTKAMDAEAGVMISASHNPVQDNGIKFFGGDGFKLSDEQEAEIERLMDEPEDKLPRPVGADLGLVNDYFEGGQKYLQFLKQTADEDFTGIHVALDCANGATSSLATHLFADLDADVSTMGTSPNGLNINDGVGSTHPEALSAFVKEKNADLGLAFDGDGDRLIAVDEKGNIVDGDQIMYICSKHLKSEGRLKDDTVVSTVMSNLGFYKALEKEGIKSVQTAVGDRYVVEAMKKDGYNVGGEQSGHLIFLDYNTTGDGLLSAIMLMNTLKATGKPLSELAAEMQKFPQLLVNVRVTDKYKVEENEKVKAVISEVEKEMNGDGRILVRPSGTEPLVRVMAEAKTKELCDEYVNRIVEVVRSEMGLE” as the sequence, how does the “soluble on expression in E. coli” value read?
Its value is “not soluble”.

Which “soluble on expression in E. coli” value does the source give for “MGLFASAPVDDGSMEIVRDFIQNMENDAQSSNKSAFADCFMDTFNFNVRGRIFTKALFVESYLTKPNPEPLILKSSIFTQGKNEIKFNVSHVVGPRTNIADFYLLREGEEGKWRLKSGIVIN” here?
The value was “not soluble”.

With “MGLFDGLLGNATQNNNETAEKELRDVLIPNEKVDMAFTLVRDLIVFTDKRLILVDKQGITGKKVDYKSIPYKSISRFSVETSGHFDLDAELKIWISSTELPSVSLQFRKDKDIVAIQQALAAAVLS” as the sequence, how does the “soluble on expression in E. coli” value read?
Its value is “not soluble”.

For “MGLFQSDKAAEEIDPPQDVTFVNDEAGANSNTTAAKKTESEKSDTAKADQASSTVMRELYLIDKNGYVVAQTLPLPKSESTAKQALEYLVQGGPVSEILPNGFRAVLPADTTVNVDIKKDGTAIADFSNEFKNYKKEDEQKIVQSVTWTLTQFSSIDKVKLRINGHELKEMPVGGTPISDDLSRKDGINLETAGVNDLTATHPLTVYYLAENEDSEYYVPVTKRIDNSEKDDITAAINELAKGPSKVSGLLTDFSEDVKLVSKPKIKDGRVTLDFNQSIFGSADEKTKMISSEVLNSIVLTLTEQPDVKSVSVKVNGKSELVNEKGEKLTEPVSRPSQVNTGSFLEHHHHHH”, which “soluble on expression in E. coli” value is on record?
Its value is “soluble”.

For “MGLGSSKRKEEPPHKSEPKTVGRVKRAGARPDEMIAKYAEVLKTRGILPEYFLVHEAKSSQYIDEDGDVANEFYQETMSDGEKRRLCRLMKNLRPKGKERYAIPRLKHDIPVVIWEVQQPQET”, which “soluble on expression in E. coli” value is on record?
Its value is “not soluble”.

Which “soluble on expression in E. coli” value does the source give for “MGLQKKLNYKKTESERSFYRGSNLKQVMGEDIVSKFDYIGPIRWIFLNYCTGYFIFVEELTNNSEIRSDRLEFIDTMNKIFSEAEQYFNSAPKERPKNPKSLAEYKYLGYYRLSFSNTNPDNSAIIRLNDVEVEKSELPPLLNLDTDEILDYAV” here?
Its value is “not soluble”.

With “MGLSHKFQVKQFVEISPYSQSRLRHEQPQTPIHSDITTYHCHRGQFDIVAGGLPCQGTSNAGNRQGLDDPRSALWAEQFRIIESDRPAIALIENPTGLLYRGLEQIICDLDSIGYMGEWNCISAQQVGLPHQRKRIFIIAYSNGLFNQVVPAPWSNQIGNHITQVRLSLETRSYQPGISKVASRIPIGVAKNIPGNYDARRAYGLSCSPRQAAVAWKRIDYLCSLLEHHHHHH” as the sequence, how does the “soluble on expression in E. coli” value read?
The value was “not soluble”.
